# Laboratory results: the domain aggregation screens of Martell et al. (2025)
# Assay: soluble fraction after stress (log2 fold change); higher = more stays soluble; pooled small domains, quantitative proteomics
# Settings: stress: 75 degC
# 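Further: 20 min heating vs room temperature control held 20 min.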
row,Sequence,soluble fraction (log2)
1,HMAAADLNMRAKLADLGGMSYGELSIWEKTHGMEFAAWEHEWEKLNSGTQADGLKFPKHLPEGFPT,0.185
2,HMAAAKDVMDWQNAIRGLTDAKGKPYSPTYLKTVHNQLSALFNHAVRYYGLQVNPAAKAGNMGVEE,-0.131
3,HMAADDGSARAEQLREMYSLISGLDKLDKAIILMWLDERSYDEIAEVTGFTRNNVATRLHRIKSRLARQSN,-1.66
4,HMAAEIGSGVVDAYDLRLRSQPSTDAETIIYLDNGAKLSVQEDLGDWYKVVSGTYTGYVSAEYVAYTPSPE,-0.806
5,HMAAELHPYGADSYRGDNPPAGYEIKAKEESKKFHTPSSPWYGRTIAEIWFRTEEAAEAAGFINAVK,-0.246
6,HMAAELQALSVRELEVLDQLAGGASNREIAQRLYISENTVRNHVHSILTKLKLQNRTQLVGMT,-0.981
7,HMAAESWTEKSRALAAAGLVVMGRDAQTKIEELTNLAPLIEAANASNTRLLTSQSIDELLSIVPTEENL,0.0818
8,HMAAGKGVTTGSVRLRKGSNTDSAIIATLKKDTELILYGKKDGWYSVKTSDGTEGFVSSKYVKVTEAY,0.61
9,HMAAGLTPKQKAFADNYIKNGGNAAEAARAAGYSLKNVGANAGKLLKNPKIAAYIAEKQAELDRRNGT,0.196
10,HMAAINPSALREPATPPEQLSAGDSVLHPRFGRGEILELQQQGGDPRAIVQFINEPKPRTLVLRYAQLRK,-0.138
11,HMAAKADAVKKAIAAIGKVDASEDSKAKVEAARKAYAALTEDQKKLVEASQLKLLTEAEAAYQQAVEESKK,-0.283
12,HMAAMSLGERIGAHRKRMGISQEELGHRMGVSRQAVSKWETGRAVPDMENLLALARLFGVPVSELAD,-0.129
13,HMAAPVGLTQRQMEVAALVADGLTNAEIGRRLHITERSAESHLERVRIRLGFRSRAQVAAWFVTQE,-3.56
14,HMAATHYEGIKQDGETDDAVIERVLTGLSVTANKDDIFIVKTLIAGTKYSYTAYVYNGNAWAAM,-1.38
15,HMAATSTGFPGVEVRGNSIRVFFMYKRDRHAHTLPLEPTRNNIKHADQLRSAALFALRNGTYNEADFFPHS,-1.6
16,HMAATVKVPDLTKMTPDEAQRALGQVGLKGKQGDDVDDDSVPVGYIAKQDEAPNSDAKAGDTITYHL,0.15

row,Sequence,soluble fraction (log2)
1,HMAAVSSHAVKQRIRSLIQAEDPASPLSDEALRLALSALGVEVSRRAVAKYRTSMDIPASSQRKK,-0.656
2,HMADEDTILALAKEILASWPDKVEAYKNGNKGMLGLFMGELMKKSGGKANPKSASALIQKLLE,-0.13
3,HMADEIQLVVQVNGKLRGRIMVAPDASREEIEKTALADADVSRFLGDTPVKKVIIVPKRLVNIVAPAPK,-1.08
4,HMADENIELRKAGLKVTLPRVKILQILEAAKEPHMSAEDVYKALMEANEEVGLATVYRVLTQFESAGL,-0.245
5,HMADGKWTLTDAGYTFTYSDGRKARGTWEDIDGEWYHFDRNGIMETGWKTVGNIRYHFNQDGSL,-1.52
6,HMADIGRMKELIDILNRASAVYYQGKDEIMSNFEYDKLYDELVSLEKESGLVLAGSPTQKVGY,-0.179
7,HMADKHVAAALLKLMDHLVGGRQYAFMKGRLTINKKVVLEATEVSAYRRGTGLSDADWQQRYE,-2.06
8,HMADLKRLNEQIHYLGQYLSTKATYKEFLQANNKKIYRSEHQDEIAKYEEAAQFLKRSSPDGTIPTMKDLR,-0.27
9,HMADLSAYAGKEGMTDSVLRPSGKVDIEGHILDAVSRGDFIEKGKRVIVIKAEGSYLVVKKRMP,-1.84
10,HMADLTEEQKTLFRLIRDLQPVSSKTLLENSGFTRSTQTRLLNGLIEKQIVIRTGNGPATRYSLR,-1.26
11,HMADLTIDGVEYTKVSPTGTLTLEKVYTKNVTPADGQYYIQTGTKTVRVATDAEVAVIKAGGF,0.153
12,HMADNKDMQAAFMEALNGLKEYAKVNGNIVTKEDVNSYFKDMHLDDNKYSMITGYLMANGITIKG,0.179
13,HMADPRFHSEIMLSKIESLLSGKADSDVSNYSIQGRSLTKMSLQELMDARESYDGLVKSEKAKLDAKY,0.0156
14,HMADPVTPQDLIRWSEALAGIARTGLGFTQSLYEQERFEEVLAVAADMRVAAGSSYNPDDLVHEWMKSVG,-0.565
15,HMADQVVGQLGMVTQRIDNLQQTGRVSANGLDWAARSENGQPIPQGMPVEVLRIEGVKLIVRPVN,-0.114
